From patent US9631002B2, “Methods and compositions for producing active vitamin K-dependent proteins” (The University of North Carolina at Chapel Hill, priority 2010, dated 2017)

Key:
[1] = system: carboxylation of FIXgla-PC reporter protein in AV12 cells (reduction of vitamin K to KH2); assay: Cell-based VKOR activity assay in FIXgla-PC/AV12 or FIXgla-PC/VKOR-Y139F/AV12 cells, carboxylated reporter by ELISA; parameters: species or system Syrian golden hamster
[2] = system: carboxylation of FIXgla-PC reporter protein in HEK293 cells (reduction of KO to vitamin K); assay: Cell-based VKOR activity assay: recombinant VKOR/VKORH expressed in FIXgla-PC/HEK293 cells with KO and warfarin, carboxylated reporter by ELISA; parameters: species or system human

B1: MT-VKORH: Mycobacterium tuberculosis VKOR homologue, NP_217484, SEQ ID NO:18 (protein, listed as Mycobacterium tuberculosis)
chain: MVAARPAERSGDPAAVRVPVPSAWWVLIGGVIGLFASMTLTVEKVRILLDPIYVPSCNVNPIVSCGSVMTTPQASLLGFPNPLLGIAGFTVVVVTGVLAVAKVPLPRWYWIGLAVGILVGVAFVHWLIFQSLYRIGALCPYCMVVWAVIATLLVVVASIVFGPMRENRGSQERVGARLLYQWRWSLATLWFTTVFLLIMVRFWDYSTLI
- support of reporter protein carboxylation ([1]; transient expression in FIXgla-PC/AV12 not stably expressing VKOR-Y139F, KO and warfarin (FIG. 19B)): produced significant carboxylated reporter protein
- activity in reducing vitamin K to KH2 to support carboxylation ([1]; transient expression in FIXgla-PC/VKOR-Y139F/AV12, KO and warfarin (FIG. 19A)): significant activity
- activity relative to human VKOR-Y139F ([2]; 5 μM KO, 4 μM warfarin, 48 h, luciferase-normalized (FIG. 15B)): 2.5 fold
- Relative activity: Human Y139F ([2]; VKOR of the organism compared to human Y139F VKOR, cell-based carboxylation): Yes, greater
- activity relative to human VKOR (Y139F) ([2]; both human forms carry Y139F, 5 μM KO, 2 μM warfarin): 2 fold

B2: hVKOR M. tuberculosis: human VKOR with residues 122-139 replaced by M. tuberculosis VKOR 129-146, SEQ ID NO:29 (protein)
chain: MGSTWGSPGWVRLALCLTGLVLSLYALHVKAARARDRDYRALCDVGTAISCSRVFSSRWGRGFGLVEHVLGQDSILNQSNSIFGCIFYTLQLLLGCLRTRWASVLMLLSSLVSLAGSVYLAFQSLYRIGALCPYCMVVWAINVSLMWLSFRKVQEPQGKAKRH
modifications: Human VKOR with amino acids 122-139 substituted with amino acids 129-146 of M. tuberculosis VKOR (RefSeq accession no. NP_217484)
- ability of human VKOR with replaced residues 122-139 to use vitamin K to carboxylate the reporter ([1]; 11 μM K, 2 μM warfarin, 48 h, FIXgla-PC AV-12 (FIG. 11B)): can utilize vitamin K to produce carboxylated reporter protein
- ability of human VKOR with replaced residues 122-139 to use KO to carboxylate the reporter ([2]; 5 μM KO, 2 μM warfarin, 48 h, HEK293 (FIG. 11C)): functions as a VKOR
